Reference: article PMC7528018, “Structure of the TFIIIC subcomplex τA provides insights into RNA polymerase III pre-initiation complex formation” (Nature Communications, 2020)

How the values were obtained:
[1] = biological target: T1, TFIIIC subcomplex τA (τ131, τ95, τ55) (S. cerevisiae, UniProt P33339 1-1025; P32367 1-649; Q12415 1-435); test: co-sedimentation; 10–30% glycerol gradient without crosslinker, equimolar τA and Brf1–TBPΔN, 75 mM NaCl at mixing, 100 mM NaCl, 20 mM HEPES pH 7.5, 5 mM DTT in the gradient, 16 h at 150,000 x g; fractions on SDS–PAGE, silver stain; apparent stoichiometry; settings: both partners purified
T1 construct: τ131, subunit of S. cerevisiae TFIIIC subcomplex τA; insect cell codon-optimized gene; τ95, subunit of S. cerevisiae TFIIIC subcomplex τA; τ55, subunit of S. cerevisiae TFIIIC subcomplex τA; No TEV cleavage of the his-tag is described in the purification; also called wt τA; full-length τA; source: Hi5 insect cells, subunits co-expressed by baculovirus, purified (Ni-NTA, heparin, MonoQ, Superose …)
T1 sequence (P33339 whole entry, chain 1 of 3): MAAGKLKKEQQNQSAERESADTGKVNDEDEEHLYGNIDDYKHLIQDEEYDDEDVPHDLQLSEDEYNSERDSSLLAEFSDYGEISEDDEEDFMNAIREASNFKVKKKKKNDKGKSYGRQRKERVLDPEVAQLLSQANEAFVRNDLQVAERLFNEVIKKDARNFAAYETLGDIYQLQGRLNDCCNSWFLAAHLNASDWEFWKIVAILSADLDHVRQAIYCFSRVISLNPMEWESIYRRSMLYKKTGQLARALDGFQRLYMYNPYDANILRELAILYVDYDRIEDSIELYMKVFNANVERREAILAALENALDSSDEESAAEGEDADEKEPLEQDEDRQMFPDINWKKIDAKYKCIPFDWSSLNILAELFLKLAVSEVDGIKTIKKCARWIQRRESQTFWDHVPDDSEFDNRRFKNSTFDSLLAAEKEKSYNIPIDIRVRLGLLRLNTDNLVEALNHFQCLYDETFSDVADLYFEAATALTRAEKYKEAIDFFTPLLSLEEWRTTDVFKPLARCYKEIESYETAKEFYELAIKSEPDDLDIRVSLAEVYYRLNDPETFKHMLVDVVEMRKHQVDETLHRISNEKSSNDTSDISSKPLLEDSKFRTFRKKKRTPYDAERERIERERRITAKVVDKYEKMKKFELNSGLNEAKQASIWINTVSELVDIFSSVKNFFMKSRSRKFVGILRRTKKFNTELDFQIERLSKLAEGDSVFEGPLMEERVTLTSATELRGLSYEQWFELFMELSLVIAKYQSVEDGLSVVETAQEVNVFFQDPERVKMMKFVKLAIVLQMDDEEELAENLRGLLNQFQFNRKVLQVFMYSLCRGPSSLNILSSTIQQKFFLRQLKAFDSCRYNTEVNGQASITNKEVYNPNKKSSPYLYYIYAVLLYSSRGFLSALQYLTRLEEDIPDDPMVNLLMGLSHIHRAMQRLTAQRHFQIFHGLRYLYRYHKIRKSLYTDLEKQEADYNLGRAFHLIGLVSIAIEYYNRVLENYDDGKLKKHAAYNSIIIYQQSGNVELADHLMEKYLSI
T1 sequence (P32367 whole entry, chain 2 of 3): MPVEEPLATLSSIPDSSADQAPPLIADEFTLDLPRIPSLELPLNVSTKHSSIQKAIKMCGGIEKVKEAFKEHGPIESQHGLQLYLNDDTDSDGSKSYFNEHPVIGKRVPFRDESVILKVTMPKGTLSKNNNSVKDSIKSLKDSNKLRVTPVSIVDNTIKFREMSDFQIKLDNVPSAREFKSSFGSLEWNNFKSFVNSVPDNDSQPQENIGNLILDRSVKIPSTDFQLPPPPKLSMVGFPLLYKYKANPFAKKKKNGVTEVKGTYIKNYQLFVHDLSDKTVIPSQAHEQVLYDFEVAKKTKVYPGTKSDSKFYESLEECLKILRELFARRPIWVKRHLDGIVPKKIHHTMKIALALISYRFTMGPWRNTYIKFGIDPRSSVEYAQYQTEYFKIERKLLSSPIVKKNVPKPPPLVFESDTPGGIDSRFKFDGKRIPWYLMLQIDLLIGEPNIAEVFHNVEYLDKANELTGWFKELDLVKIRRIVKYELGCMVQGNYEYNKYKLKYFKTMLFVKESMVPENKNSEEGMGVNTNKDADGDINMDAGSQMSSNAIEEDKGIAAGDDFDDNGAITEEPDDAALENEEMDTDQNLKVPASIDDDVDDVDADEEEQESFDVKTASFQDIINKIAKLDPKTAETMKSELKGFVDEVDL
T1 sequence (Q12415 whole entry, chain 3 of 3): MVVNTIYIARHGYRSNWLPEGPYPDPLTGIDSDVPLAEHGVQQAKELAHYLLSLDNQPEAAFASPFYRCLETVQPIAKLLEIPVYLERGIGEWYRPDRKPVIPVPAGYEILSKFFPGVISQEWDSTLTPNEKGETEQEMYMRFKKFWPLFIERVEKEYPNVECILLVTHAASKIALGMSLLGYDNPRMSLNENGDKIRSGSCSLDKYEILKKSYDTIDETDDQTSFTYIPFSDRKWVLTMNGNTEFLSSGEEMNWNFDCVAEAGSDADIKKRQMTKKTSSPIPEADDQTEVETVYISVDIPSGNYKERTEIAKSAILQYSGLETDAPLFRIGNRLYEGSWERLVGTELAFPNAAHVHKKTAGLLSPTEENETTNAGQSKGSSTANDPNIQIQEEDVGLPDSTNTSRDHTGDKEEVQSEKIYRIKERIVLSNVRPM

τA Δplug (τ95Δplug) = τA Δplug (τ95Δplug) (Saccharomyces cerevisiae, UniProt P33339;P32367;Q12415 1-1025;1-521;1-435); test: EMSA; 1-10 uM protein, 1 uM DNA; much stronger than wt, weaker than Δtail; τA EMSA: 100 mM NaCl, 20 mM HEPES pH 7.5, 5 mM DTT, 1 h on ice, 10% glycerol added before loading; TFIIIC EMSA: 1 h on ice, buffer not restated; 3-8% Tris-acetate gel in 2.5 mM Tris base, 19 mM glycine, 1 mM DTT; settings: protein: recombinant; tags: N-terminal TEV-cleavable His tag on τ95; copies: 1;1;1; label: 6FAM at 3' end of non-template strand
Sequence of τA Δplug (τ95Δplug) (P33339 whole entry, stated change not applied, chain 1 of 3): as the sequence (P33339 whole entry, chain 1 of 3) above
Sequence of τA Δplug (τ95Δplug) (P32367 1-521, stated change not applied, chain 2 of 3): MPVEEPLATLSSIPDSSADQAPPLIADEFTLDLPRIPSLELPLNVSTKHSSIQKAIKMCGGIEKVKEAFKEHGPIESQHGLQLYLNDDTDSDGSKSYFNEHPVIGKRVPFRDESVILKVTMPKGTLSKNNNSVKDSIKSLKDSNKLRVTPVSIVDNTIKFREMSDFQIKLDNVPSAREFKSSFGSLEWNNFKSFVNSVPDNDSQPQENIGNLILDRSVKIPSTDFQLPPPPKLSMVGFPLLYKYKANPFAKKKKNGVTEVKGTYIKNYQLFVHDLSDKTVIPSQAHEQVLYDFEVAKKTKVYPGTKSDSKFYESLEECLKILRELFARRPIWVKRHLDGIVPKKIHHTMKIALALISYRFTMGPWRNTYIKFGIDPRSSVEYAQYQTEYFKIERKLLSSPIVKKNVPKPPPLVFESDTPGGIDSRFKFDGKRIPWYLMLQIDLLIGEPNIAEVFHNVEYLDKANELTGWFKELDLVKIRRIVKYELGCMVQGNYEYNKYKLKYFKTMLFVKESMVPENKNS
Sequence of τA Δplug (τ95Δplug) (Q12415 whole entry, stated change not applied, chain 3 of 3): as the sequence (Q12415 whole entry, chain 3 of 3) above

τA Δtail (τ95Δtail) = τA Δtail (τ95Δtail) (Saccharomyces cerevisiae, UniProt P33339;P32367;Q12415 1-1025;1-592;1-435); test: EMSA; 1-10 uM protein, 1 uM DNA; much stronger than wt and stronger than Δplug; τA EMSA: 100 mM NaCl, 20 mM HEPES pH 7.5, 5 mM DTT, 1 h on ice, 10% glycerol added before loading; TFIIIC EMSA: 1 h on ice, buffer not restated; 3-8% Tris-acetate gel in 2.5 mM Tris base, 19 mM glycine, 1 mM DTT; settings: protein: recombinant; tags: N-terminal TEV-cleavable His tag on τ95; copies: 1;1;1; label: 6FAM at 3' end of non-template strand
Sequence of τA Δtail (τ95Δtail) (P33339 whole entry, stated change not applied, chain 1 of 3): as the sequence (P33339 whole entry, chain 1 of 3) above
Sequence of τA Δtail (τ95Δtail) (P32367 1-592, stated change not applied, chain 2 of 3): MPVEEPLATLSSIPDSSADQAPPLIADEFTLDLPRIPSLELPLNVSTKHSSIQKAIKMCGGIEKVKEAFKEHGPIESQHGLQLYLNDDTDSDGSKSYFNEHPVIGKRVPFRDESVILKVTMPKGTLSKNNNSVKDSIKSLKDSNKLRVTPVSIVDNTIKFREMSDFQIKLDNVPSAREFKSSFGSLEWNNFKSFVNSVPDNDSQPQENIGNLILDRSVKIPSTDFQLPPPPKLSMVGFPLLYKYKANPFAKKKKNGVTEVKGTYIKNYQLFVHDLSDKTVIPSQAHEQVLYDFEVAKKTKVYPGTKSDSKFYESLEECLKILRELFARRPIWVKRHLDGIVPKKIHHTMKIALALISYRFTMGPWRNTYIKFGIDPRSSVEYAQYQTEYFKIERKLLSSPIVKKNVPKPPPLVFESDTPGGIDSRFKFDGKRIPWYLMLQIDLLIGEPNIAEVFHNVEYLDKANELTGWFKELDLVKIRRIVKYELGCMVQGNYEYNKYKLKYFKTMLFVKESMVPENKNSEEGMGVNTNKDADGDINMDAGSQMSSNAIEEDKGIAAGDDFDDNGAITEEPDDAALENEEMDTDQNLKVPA
Sequence of τA Δtail (τ95Δtail) (Q12415 whole entry, stated change not applied, chain 3 of 3): as the sequence (Q12415 whole entry, chain 3 of 3) above

[2] = biological target: holo-TFIIIC Δtail (τ95Δtail) (Saccharomyces cerevisiae, UniProt P33339;P32367;Q12415;P34111;Q06339;Q12308 1-1025;1-592;1-435;1-1160;1-672;1-588); test: EMSA; 0.5 uM DNA; tail deletion has only a mild effect; τA EMSA: 100 mM NaCl, 20 mM HEPES pH 7.5, 5 mM DTT, 1 h on ice, 10% glycerol added before loading; TFIIIC EMSA: 1 h on ice, buffer not restated; 3-8% Tris-acetate gel in 2.5 mM Tris base, 19 mM glycine, 1 mM DTT; settings: protein: recombinant; tags: N-terminal TEV-cleavable His tag on τ95; C-terminal TEV-cleavable TwinStrep on τ138; copies: 1;1;1;1;1;1; label: 6FAM at 3' end of non-template strand

B1: Brf1–TBP construct lacking the first 70 amino acids (Zn-ribbon and linker) (other)
chain: SALESREATLNNARRKLRAVSYALHIPEYITDAAFQWYKLALANNFVQGRRSQNVIASCLYVACRKEKTHHMLIDFSSRLQVSVYSIGATFLKMVKKLHITELPLADPSLFIQHFAEKLDLADKKIKVVKDAVKLAQRMSKDWMFEGRRPAGIAGACILLACRMNNLRRTHTEIVAVSHVAEETLQQRLNEFKNTKAAKLSVQKFRENDVEDGEARPPSFVKNRKKERKIKDSLDKEEMFQTSEEALNKNPILTQVLGEQELSSKEVLFYLKQFSERRARVVERIKATNGIDGENIYHEGSENETRKRKLSESGIVPTLQNIVATVTLGCRLDLKTVALHARNAEYNPKRFAAVIMRIREPKTTALIFASGKMVVTGAKSEDDSKLASRKYARIIQKIGFAAKFTDFKIQNIVGSCDVKFPIRLEGLAFSHGTFSSYEPELFPGLIYRMVKPKIVLLIFVSGKIVLTGAKQREEIYQAFEAIYPVLSEFRKMPRNLHLLPTTDTYLSKVSDDPDNLEDVDDEELNAHLLNEEASKLKERIWIGLNADFLLEQESKRLKQEADIATGNTSVKKKRTRRRNNTRSDEPTKTVDAAAAIGLMSDLQDKSGLHAALKAAEESGDFTTADSVKNMLQKASFSKKINYDAIDGLFR
Q: Which “stoichiometry N” value [1] does the source give for B1 here?
A: The value was 1.

B2: His_Abox (dsDNA)
DNA 1: CATCTTAGTATAGTGGTTAGT
DNA 2: ACTAACCACTATACTAAGATG
Q: Does B2 bind (τA Δplug (τ95Δplug))?
A: Result: binds

Q: Does B2 bind (τA Δtail (τ95Δtail))?
A: Result: binds

B3: His_Abox_Bbox (dsDNA)
DNA 1: CATCTTAGTATAGTGGTTAGTACACATCGTTGTGGCCGATGAAACCCTGGTTCGATTCTAGG
DNA 2: CCTAGAATCGAACCAGGGTTTCATCGGCCACAACGATGTGTACTAACCACTATACTAAGATG
Q: Does B3 bind [2]?
A: Result: binds
